{"source": "patent US20230184768A1", "about": "(MESO SCALE TECHNOLOGIES, published 2023)", "binders": {"B1": {"name": "HCoV-HKU1 S protein (other)", "chain": "AVIGDFNCTNFAINDLNTTVPRISEYVVDVSYGLGTYYILDRVYLNTTILFTGYFPKSGANFRDLSLKGTTYLSTLWYQKPFLSDFNNGIFSRVKNTKLYVNKTLYSEFSTIVIGSVFINNSYTIVVQPHNGVLEITACQYTMCEYPHTICKSKGSSRNESWHFDKSEPLCLFKKNFTYNVSTDWLYFHFYQERGTFYAYYADSGMPTTFLFSLYLGTLLSHYYVLPLTCNAISSNTDNETLQYWVTPLSKRQYLLKFDNRGVITNAVDCSSSFFSEIQCKTKSLLPNTGVYDLSGFTVKPVATVHRRIPDLPDCDIDKWLNNFNVPSPLNWERKIFSNCNFNLSTLLRLVHTDSFSCNNFDESKIYGSCFKSIVLDKFAIPNSRRSDLQLGSSGFLQSSNYKIDTTSSSCQLYYSLPAINVTINNYNPSSWNRRYGFNNFNLSSHSVVYSRYCFSVNNTFCPCAKPSFASSCKSHKPPSASCPIGTNYRSCESTTVLDHTDWCRCSCLPDPITAYDPRSCSQKKSLVGVGEHCAGFGVDEEKCGVLDGSYNVSCLCSTDAFLGWSYDTCVSNNRCNIFSNFILNGINSGTTCSNDLLQPNTEVFTDVCVDYDLYGITGQGIFKEVSAVYYNSWQNLLYDSNGNIIGFKDFVTNKTYNIFPCYAGRVSAAFHQNASSLALLYRNLKCSYVLNNISLTTQPYFDSYLGCVFNADNLTDYSVSSCALRMGSGFCVDYNSPSSSSSRRKRRSISASYRFVTFEPFNVSFVNDSIESVGGLYEIKIPTNFTIVGQEEFIQTNSPKVTIDCSLFVCSNYAACHDLLSEYGTFCDNINSILDEVNGLLDTTQLHVADTLMQGVTLSSNLNTNLHFDVDNINFKSLVGCLGPHCGSSSRSFFEDLLFDKVKLSDVGFVEAYNNCTGGSEIRDLLCVQSFNGIKVLPPILSESQISGYTTAATVAAMFPPWSAAAGIPFSLNVQYRINGLGVTMDVLNKNQKLIATAFNNALLSIQNGFSATNSALAKIQSVVNSNAQALNSLLQQLFNKFGAISSSLQEILSRLDALEAQVQIDRLINGRLTALNAYVSQQLSDISLVKFGAALAMEKVNECVKSQSPRINFCGNGNHILSLVQNAPYGLLFMHFSYKPISFKTVLVSPGLCISGDVGIAPKQGYFIKHNDHWMFTGSSYYYPEPISDKNVVFMNTCSVNFTKAPLVYLNHSVPKLSDFESELSHWFKNQTSIAPNLTLNLHTINATFLDLYYEMNLIQES", "notes": "also called HCoV-HKU1 spike protein"}}, "molecular_target": "T1, labeled ACE2 (angiotensin-converting enzyme 2) (human, UniProt Q9BYF1 18-740)", "T1 construct": "also called ACE2 detection reagent", "T1 sequence (Q9BYF1 18-740 limits assumed)": "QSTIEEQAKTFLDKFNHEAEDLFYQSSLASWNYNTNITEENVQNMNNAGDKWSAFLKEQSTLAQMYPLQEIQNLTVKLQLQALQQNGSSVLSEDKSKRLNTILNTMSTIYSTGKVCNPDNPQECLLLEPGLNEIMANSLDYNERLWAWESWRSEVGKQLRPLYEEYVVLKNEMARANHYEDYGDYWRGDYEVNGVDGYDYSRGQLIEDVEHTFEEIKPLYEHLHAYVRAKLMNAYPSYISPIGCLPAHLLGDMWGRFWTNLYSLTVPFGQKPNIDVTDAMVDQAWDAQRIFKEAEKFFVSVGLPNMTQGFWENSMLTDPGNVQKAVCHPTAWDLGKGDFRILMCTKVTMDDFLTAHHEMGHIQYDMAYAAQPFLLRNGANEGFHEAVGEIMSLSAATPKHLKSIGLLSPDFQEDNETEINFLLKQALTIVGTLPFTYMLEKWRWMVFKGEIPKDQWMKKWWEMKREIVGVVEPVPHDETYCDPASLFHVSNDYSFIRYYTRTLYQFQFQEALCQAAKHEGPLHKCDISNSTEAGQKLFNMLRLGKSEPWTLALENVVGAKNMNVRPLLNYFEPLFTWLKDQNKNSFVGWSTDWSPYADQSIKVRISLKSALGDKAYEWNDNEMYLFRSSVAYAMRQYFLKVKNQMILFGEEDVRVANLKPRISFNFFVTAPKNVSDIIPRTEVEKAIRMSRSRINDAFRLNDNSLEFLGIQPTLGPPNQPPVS", "test": "labeled ACE2 on immobilized Mixed Panel, ECL", "data": [{"binder": "B1", "values": [{"measurement": "binding result", "value": "no binding"}]}]}
